The text below walks through data of patent US20240197897A1, “HETEROTANDEM BICYCLIC PEPTIDE COMPLEXES” (Bicycle Tx Limited, priority 2021, published 2024).

Starred links: 1 amine or outer side, 2 acyl side, 3 side chain; linkers in the order of their positions; H or OH if unused. Positions of bridges follow the written chain, without caps; N, C: chain ends. Non-standard residues stand in square brackets, D forms with d. Chains are numbered I, II in the order given. No end group written: not given here. *: point of attachment. TBMT = 2,4,6-tris(bromomethyl)-s-triazine, molecular scaffold, C(c1nc(C[*:2])nc(C[*:3])n1)[*:1]; TATA = O=C(CC[*:1])N1CN(C(=O)CC[*:2])CN(C(=O)CC[*:3])C1; Hyp = O=C(O)[C@@H]1C[C@@H](O)CN1; hArg = N=C(N)NCCCC[C@H](N)C(=O)O; Cba = N[C@@H](CC1CCC1)C(=O)O; Pent4ynoyl = C#CCCC(=O)*

The test system of data set [1] is NK cells. Put plainly: Degranulation assay (CD107a surface expression on NK cells co-cultured with A549). The data set is classed as cell-based, human. The conditions noted are these: for upregulation of CD107a on NK cell surface: NK cells with A549 cells, post-treatment, FIG. 1. The protocol: Tumor cells can be recognized and killed by CD8+T-cytotoxic and NK cells through the immune secretion of lytic granules that kill target cells. This process involves the fusion of the granule membrane with the cytoplasmic membrane of the immune effector cell, resulting in surface exposure of CD107a (LAMP1). Membrane expression of CD107a constitutes a marker of immune cell activation and cytotoxic degranulation. EphA2/NKp46 or EphA2/CD16a heterotandem bicyclic peptide complexes were evaluated for activation of NK cells using a degranulation assay.
On the day of the experiment, medium was prepared by supplementing RPMI-1640 (Gibco™ 11875-093; with L-glutamine) with 10% heat-inactivated fetal bovine serum (FBS; Corning® 35-011-CV), 10 mM HEPES (Gibco™ 15-630-080), and 1% Penicillin Streptomycin (Corning™ 30-002-CI), herein referred to as working medium. Previously isolated human peripheral blood mononuclear cells (PBMCs), from whole blood, were quick thawed in a water bath and washed once at 500 rpm for 5 minutes in 10 mL of prewarmed working medium. PBMC pellet was then resuspended to concentration of 5×10^6 cells/mL in working medium and rested overnight (12-18 hours) horizontally in a tissue-culture coated flask (T-183; CELLTREAT Scientific 229351). Moreover, Ephrin type-A receptor (EphA2) expressing human lung carcinoma cell line A549 (ATCCR CCL-185; cells were grown and maintained according to manufacturer's recommendation) were detached from the culture vessel using Trypsin/EDTA and washed once at 500 rpm for 5 minutes in 15 mL of prewarmed working medium. Cell pellet was then resuspended in working medium at a concentration of 1×10^5 cells/mL. Subsequently, 100 μL of cell suspension was plated in a flat-bottom tissue-culture coated 96-well plate (Greiner CellStar® 655180) and rested overnight (12-18 hours).
Post-overnight incubation, PBMCs were removed from the flask and washed once at 500 rpm for 5 minutes in 10 mL of prewarmed working medium. […]

Data set [2] deals with HT1080-luc cells. Put plainly: NK cytotoxicity assay (NK:HT1080-luc co-culture, luciferase readout). The data set is classed as cell-based, human. The conditions noted are these: in comparison to NK:HT1080-luc co-culture without heterotandem complex (NK-TICA). The protocol: (§1) Heterotandem bicyclic peptide complexes were evaluated for NK functional readouts (cytotoxicity and cytokine secretion) in NK-tumor cell line co-cultures.
(§2) NK cells were isolated using a negative isolation kit (STEMCELL™ Technologies 17955) from the total PBMC population purified from whole blood. NK cell pellet was then resuspended in DMEM medium (Corning™ 10-013-CV) with 10% heat-inactivated fetal bovine serum (FBS; Corning® 35-011-CV), 10 mM HEPES (Gibco™ 15-630-080), and 1% Penicillin Streptomycin (Corning™ 30-002-CI), and 50 IU/mL human IL-2 (Miltenyi Biotec® 130-097-748), at a concentration of 4×10^5 cells/mL. For the NK cell cytotoxicity assays, 50 μL (2×10^4) of cell suspension was plated in the 96-well plate (Grenier® Bio One™ 655090) containing 50 μl (4×10^3) HT1080-luc cells (ATCC® CCL-121-luc2) in DMEM (Gibco™ 11875-093; with L-glutamine) with 10% heat-inactivated fetal bovine serum (FBS; Corning® 35-011-CV), 10 mM HEPES (Gibco™ 15-630-080), and 1% Penicillin Streptomycin (Corning™ 30-002-CI). […] The plates were then incubated for 24 hours at 37° C., 5% CO2. Post-incubation, plates was centrifuged at 250×g for 5 minutes and 100 μl supernatant discarded. Samples were then incubated 10 minutes with 50 μl Bright-Glo™ Luciferase Assay system (Promega™ E2620). Luminescence upon excitation at 570 nm was read using a CLARIOstar® plate-reader with MARS Data Analysis Software™. Data was fit to a four-parameter non-linear regression in GraphPad Prism™ 8.0.2 to generate an EC50 value.

Test in data set [3]: as above
Particulars: NK:HT1080-luc co-culture, 24 hours, four-parameter logistic regression; FIGS. 2-4, 6-8, 10; read-out: EC50 NK cytotoxicity (tumor cell killing). The format is cell-based, human. The procedure:
as §1, §2

For data set [4], the target named is FcγRIIIA (also known as CD16a) (human) (UniProt P08637). Put plainly: cell-based or functional assay.
Sequence of FcγRIIIA (also known as CD16a) (human) (P08637 17-254): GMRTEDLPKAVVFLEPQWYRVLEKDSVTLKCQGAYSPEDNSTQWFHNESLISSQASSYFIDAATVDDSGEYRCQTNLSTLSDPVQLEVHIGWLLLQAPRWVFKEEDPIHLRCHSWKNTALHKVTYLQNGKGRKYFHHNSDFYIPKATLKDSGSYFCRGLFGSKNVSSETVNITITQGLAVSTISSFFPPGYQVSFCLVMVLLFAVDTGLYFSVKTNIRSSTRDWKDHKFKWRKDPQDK
Data set [5] concerns the target EPH receptor A2 (ephrin type-A receptor 2) (human) (UniProt P29317). Put plainly: cell-based or functional assay.
The target in data set [6] is NKp46 (human) (UniProt O76036). The data set is described as follows: cell-based or functional assay.
Sequence of NKp46 (human) (O76036 22-304): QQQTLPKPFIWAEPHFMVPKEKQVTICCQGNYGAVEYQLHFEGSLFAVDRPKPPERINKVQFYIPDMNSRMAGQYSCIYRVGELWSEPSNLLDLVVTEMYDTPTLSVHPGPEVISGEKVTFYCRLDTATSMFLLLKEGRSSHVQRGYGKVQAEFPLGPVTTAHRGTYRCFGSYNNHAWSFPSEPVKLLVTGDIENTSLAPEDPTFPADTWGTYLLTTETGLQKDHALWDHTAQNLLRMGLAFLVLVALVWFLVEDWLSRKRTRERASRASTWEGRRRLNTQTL

Usually EC50 stands for the midpoint of the concentration-response curve.

Sequence of EPH receptor A2 (ephrin type-A receptor 2) (human) (P29317 24-976): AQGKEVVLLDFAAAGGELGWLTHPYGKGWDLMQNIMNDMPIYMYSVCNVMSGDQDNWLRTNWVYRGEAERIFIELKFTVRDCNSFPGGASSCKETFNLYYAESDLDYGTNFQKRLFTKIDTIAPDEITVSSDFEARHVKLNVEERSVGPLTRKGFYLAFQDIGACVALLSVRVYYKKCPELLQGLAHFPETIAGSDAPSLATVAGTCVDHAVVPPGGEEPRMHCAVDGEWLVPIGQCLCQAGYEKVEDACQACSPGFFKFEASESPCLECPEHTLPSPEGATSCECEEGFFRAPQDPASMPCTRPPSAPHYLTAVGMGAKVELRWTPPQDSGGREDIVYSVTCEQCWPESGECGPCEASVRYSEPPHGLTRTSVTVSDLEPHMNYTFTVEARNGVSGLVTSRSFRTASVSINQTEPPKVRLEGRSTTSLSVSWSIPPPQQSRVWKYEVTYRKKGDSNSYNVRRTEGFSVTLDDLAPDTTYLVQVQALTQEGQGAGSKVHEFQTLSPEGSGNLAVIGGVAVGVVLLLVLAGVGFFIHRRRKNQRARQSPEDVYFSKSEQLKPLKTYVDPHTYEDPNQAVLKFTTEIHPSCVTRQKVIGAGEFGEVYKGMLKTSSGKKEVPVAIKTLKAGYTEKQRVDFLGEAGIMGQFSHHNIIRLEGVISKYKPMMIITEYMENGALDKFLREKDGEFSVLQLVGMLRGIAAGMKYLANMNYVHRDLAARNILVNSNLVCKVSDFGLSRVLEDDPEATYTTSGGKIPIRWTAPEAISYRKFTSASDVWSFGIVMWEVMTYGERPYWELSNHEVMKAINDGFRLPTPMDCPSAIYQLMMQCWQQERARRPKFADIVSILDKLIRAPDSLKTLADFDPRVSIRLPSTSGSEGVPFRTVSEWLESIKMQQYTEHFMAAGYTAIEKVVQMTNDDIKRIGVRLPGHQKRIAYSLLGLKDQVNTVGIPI

For the molecule `CC(C)C[C@@H]1NC(=O)[C@H](Cc2ccc(O)cc2)NC(=O)[C@H](CC(=O)O)NC(=O)[C@@H]2CCCN2C(=O)[C@H](CC(C)C)NC(=O)[C@H](Cc2ccc(O)cc2)NC(=O)[C@@H](NC(=O)[C@H](C)N)CSCCC(=O)N2CN3CN(C2)C(=O)CCSC[C@@H](C(=O)N[C@@H](C)C(=O)N[C@H](CCCCNC(=O)CCc2cn(CCOCCOCCOCCN(CCOCCOCCOCCC(=O)N[C@@H](C)C(=O)N[C@@H](CCCCNC(=N)N)C(=O)N[C@@H](CC(=O)O)C(=O)N[C@H]4CSCCC(=O)N5CN6CN(C5)C(=O)CCSC[C@H](NC(=O)[C@H](CC(C)C)NC(=O)[C@@H]5CCCN5C(=O)[C@H](CC(N)=O)NC(=O)[C@H](C(C)C)NC(=O)[C@H](CC(C)C)NC(=O)[C@@H]5C[C@@H](O)CN5C4=O)C(=O)N[C@@H](CC(C)C)C(=O)N[C@@H](Cc4c[nH]cn4)C(=O)N4CCC[C@H]4C(=O)N[C@H](CC(=O)O)C(=O)N[C@@H](Cc4c[nH]c5ccccc45)C(=O)N[C@@H](CCCCNC(=N)N)C(=O)N[C@H](C(N)=O)CSCCC6=O)CCOCCOCCOCCn4cc(CCC(=O)NCCCC[C@@H](NC(=O)[C@H](C)NC(=O)[C@@H]5CSCCC(=O)N6CN7CN(C6)C(=O)CCSC[C@H](NC(=O)[C@H](CC(C)C)NC(=O)[C@H](Cc6ccc(O)cc6)NC(=O)[C@H](CC(=O)O)NC(=O)[C@@H]6CCCN6C(=O)[C@H](CC(C)C)NC(=O)[C@H](Cc6ccc(O)cc6)NC(=O)[C@@H](NC(=O)[C@H](C)N)CSCCC7=O)C(=O)NCC(=O)N[C@@H](CC(=O)O)C(=O)N[C@@H](CCC(=O)O)C(=O)N[C@@H](Cc6ccc(O)cc6)C(=O)N5)C(N)=O)nn4)nn2)C(N)=O)NC(=O)[C@H](Cc2ccc(O)cc2)NC(=O)[C@H](CCC(=O)O)NC(=O)[C@H](CC(=O)O)NC(=O)CNC(=O)[C@H](CSCCC3=O)NC1=O` [BCY15664], the “upregulation of CD107a on NK cell surface” value in data set [1] is on record as “dose-dependent upregulation of CD107a”. In data set [2], the “effect on tumor cell killing by NK cells, in words” value is “dose-dependent NK cell response to kill”. Besides, the EC50 in data set [3] was found to be 0.021 nM.
Turning to “BCY15911: EphA2 specific peptide BCY9594 linked to two CD16a specific peptides (BCY13886) via N-(acid-PEG3)-N-bis(PEG3-azide) linker (peptide 1 A[hArg]DC[Hyp]LVNPLCLHP[dD]W[hArg]C; peptide 2 ACVGLEELGPCSDLCAK(Pent4ynoyl); linker I:4-I:11-I:18 via TATA; linker II:2-II:11-II:15 via TBMT; also: chain 1 N-terminus and chain 2 K(PYA) joined through N-(acid-PEG3)-N-bis(PEG3-azide) linker, two copies of chain 2)”, in data set [1], the “upregulation of CD107a on NK cell surface” value was “dose-dependent upregulation of CD107a”. Besides, the EC50 in data set [1] (NK cells with EphA2 expressing A549 cells, 4 hours, flow cytometry, read-out: EC50 Degranulation Geometric Mean CD107a) was 99.8 nM.

B1: heterotandem bicyclic peptide complex BCY15911 (peptide)
peptide 1: A[hArg]DC[Hyp]LVNPLCLHP[dD]W[hArg]C
peptide 2: ACVGLEELGPCSDLCAK(Pent4ynoyl)
modifications: linker I:4-I:11-I:18 via TATA; linker II:2-II:11-II:15 via TBMT; also: EphA2:CD16a 1:2, two copies of chain 2 on the linker, X5, X17: HyP or HArg, linker at chain B 17 to a chain's N-terminus via N-(acid-PEG3)-N-bis(PEG3-azide) linker
As to B1, the EC50 Degranulation Geometric Mean CD107a in data set [4] and in data set [5] was 99.8 nM each time.

B2: heterotandem bicyclic peptide complex BCY15923 (peptide)
peptide 1: A[hArg]DC[Hyp]LVNPLCLHP[dD]W[hArg]C
peptide 2: ACDLTTHNCQWGICAK(Pent4ynoyl)
modifications: linker I:4-I:11-I:18, II:2-II:9-II:14 via TATA; also: EphA2:NKp46 1:2, two copies of chain 2 on the linker, X5, X17: HyP or HArg, linker at chain B 16 to a chain's N-terminus via N-(acid-PEG3)-N-bis(PEG3-azide) linker
In the case of B2, the EC50, NK cytotoxicity assay (HT1080-luc luminescence) in data set [6] and in data set [5] was 0.044 nM each time.

B3: heterotandem bicyclic peptide complex BCY20793 (peptide)
peptide 1: A[hArg]DC[Hyp]LVNPLCLHP[dD]W[hArg]C
peptide 2: Ac-CY[Cba]PDYLC[dA]DEYCK(Pent4ynoyl)
peptide 3: ACRWHFSEPCGAWCAK(Pent4ynoyl)
modifications: linker I:4-I:11-I:18, II:1-II:8-II:13 via TATA; linker III:2-III:10-III:14 via TBMT; also: three peptides joined on N-(PEG3-acid)-N-(PEG3-azide)-N-(PEG3-NH-AcAz) linker (triazole to PYA of chains 2 and 3)
Consider B3, for which the EC50, NK cytotoxicity assay (HT1080-luc luminescence) in data set [4] and in data set [6] was 0.0065 nM in each case.
